B1: Endothelial transcription factor GATA-2 (Homo sapiens), P23769 (parent)
chain: MEVAPEQPRWMAHPAVLNAQHPDSHHPGLAHNYMEPAQLLPPDEVDVFFNHLDSQGNPYYANPAHARARVSYSPAHARLTGGQMCRPHLLHSPGLPWLDGGKAALSAAAAHHHNPWTVSPFSKTPLHPSAAGGPGGPLSVYPGAGGGSGGGSGSSVASLTPTAAHSGSHLFGFPPTPPKEVSPDPSTTGAASPASSSAGGSAARGEDKDGVKYQVSLTESMKMESGSPLRPGLATMGTQPATHHPIPTYPSYVPAAAHDYSSGLFHPGGFLGGPASSFTPKQRSKARSCSEGRECVNCGATATPLWRRDGTGHYLCNACGLYHKMNGQNRPLIKPKRRLSAARRAGTCCANCQTTTTTLWRRNANGDPVCNACGLYYKLHNVNRPLTMKKEGIQTRNRKMSNKSKKSKKGAECFEELSKCMQEKSSPFSAAALAGHMAPVGHLPPFSHSGHILPTPTPIHPSSSLSFGHPHPSSMVTAMG

Variants of: B1
Conditions: with cbp_human CREBBP

Variant | effect of a mutation on the interaction
L359V | increasing interaction

From IntAct's records for PubMed 18250304
